# According to patent US20240100133A1, “ENZYMATICALLY INACTIVE GRANZYME A AND USES THEREFORE” (Saint Louis University, priority 2022, published 2024):
# B1: GzmA-WT: recombinant wild-type human Granzyme A, homodimeric serine protease, purified from HEK293T supernatants (protein)
# chain: IIGGNEVTPHSRPYMVLLSLDRKTICAGALIAKDWVLTAAHCNLNKRSQVILGAHSITREEPTKQIMLVKKEFPYPCYDPATREGDLKLLQLMEKAKINKYVTILHLPKKGDDVKPGTMCQVAGWGRTHNSASWSDTLREVNITIIDRKVCNDRNHYNFNPVIGMNMVCAGSLRGGRDSCNGDSGSPLLCEGVFRGVTSFGLENKCGDPRGPGVYILLSKKHLNWIIMTIKGAV
# modifications: left off: small tags and cut ends
# notes: recombinant wild-type human Granzyme A, homodimeric serine protease, purified from HEK293T supernatants
# How the values were obtained:
# [1] = tested on: mycobacteria within iMac TLR4KO cells; assay: MGIA in iMac TLR4KO cells; format: cell-based, mouse
# mycobacteria BCG-GFP = format: binding
# [2] = tested on: BCG-GFP in human monocytes; assay: BCG-GFP protection experiments and kinetics by flow cytometry
# Procedure: Following treatment with GzmA and infection with mycobacteria, monocytes were first blocked with True Stain Fc blocker (Cat. #426101, Biolegend, San Diego, CA), and then permeabilized using permeabilization solution (Cat. #554715, BD Biosciences, San Diego, CA). Next, cells were incubated with anti-GzmA antibody conjugated with PE (Cat. #558904, BD Biosciences, San Diego, CA). A flow cytometer was then used to analyze BCG-GFP and GzmA-PE positive cells. FlowJo software was used for analysis.
# [3] = tested on: LAMP1 (phagolysosome fusion); assay: Confocal microscopy colocalization of BCG-GFP and LAMP1; format: cell-based, human; conditions: compared with untreated controls
# Procedure: (§1) Confocal microscopy and Stimulation Emission Depletion (STED) experiments. For confocal and STED microscopy experiments, cells were incubated on coverslips pre-treated with Cell-Tak (Corning #354240). At the time of fixation, cells were washed twice with 1×RT PBS, and then fixed in 4% paraformaldehyde for 15 min at 37° C. Slides were washed thrice for 5 min at RT with 1×PBS, and then blocked with 5% donkey serum (Cat. #017-000-121, Jackson ImmunoResearch, West Grove, PA) with 0.25% Tween-20 (Cat. #P9416, Sigma, St. Louis, MO) and True Stain Fc blocker (added only during blocking step) (Cat. #426101, Biolegend, San Diego, CA). Cells were then incubated overnight at 4° C. with primary antibody anti-GzmA (Cat. #MAB29051, R&D, Minneapolis, MN) at 12.5 μg/mL in blocking buffer, anti-PDIA1 (Cat. #MAB4236, R&D, Minneapolis, MN) at 12.5 μg/mL in blocking buffer, anti-LAMP1 at 12.5 ug/ml (Cat. #MAB4800, R&D, Minneapolis, MN), or anti-ATPSH (Cat. #ab110275, Abcam, Cambridge, UK) at 5 μg/mL in blocking buffer. To remove unbound antibody, cells were washed four times with 1×PBS at RT, and then incubated in the dark for 2 h with secondary antibody conjugated with Alexa Fluor 594 (Cat. #715-545-150, Jackson Immunoresearch, West Grove, PA) at 1:100 or Atto 647N (Cat. #ASR3248, Abcepta, San Diego, Ca) at 1:100. […]
# [4] = thawed aliquots tested up to a week after thawing
# PDIA1 [5] = target: T1, PDIA1 (Homo sapiens, UniProt P07237); assay: Incubation of GzmA-WT with recombinant PDIA1 (silver stain, anti-GzmA WB); format: biochemical; design: The cDNA of human PDIA1 (residues 18-479) was cloned into a pET-23 vector expression system; His-tag (N); made in house; host or cells: E. coli BL21(DE3); conditions: fresh PDIA1; not present with heat-inactivated PDIA1
# Procedure: Expression and purification of human recombinant PDIA1. The cDNA of human PDIA1 (residues 18-479) was cloned into a pET-23 vector expression system. An N-terminal His-tag was engineered to facilitate purification. Sequence verified plasmids were transfected into BL21(DE3) cells. Cells were grown in LB medium until an OD600 of ˜0.6. Protein expression was induced with 0.5 mM IPTG. After overnight incubation at 37° C., cells were harvested by centrifugation. Soluble PDI protein was extracted by treating the cells with a nonionic detergent (B-PER, Thermo) followed by purification by affinity chromatography using a TALON resin as described before (Chinnaraj et al., 2021). Briefly, fractions eluted at 200 mM imidazole were pooled, dialyzed overnight in Tris 20 mM pH 7.4 145 mM NaCl to remove imidazole, and then loaded into size exclusion chromatography column 5200 10/300 (Cytiva) to isolate monomeric protein. Final protein concentrations were determined by measuring the absorbance at 280 nm, and using molar extinction coefficient of PDIA1 (i.e., 45755 M-lcm-1). Chemical identity was verified by mass spectrometry. Purify was >98%, as judged by SDS-PAGE.
# Target sequence in this assay (P07237 18-479): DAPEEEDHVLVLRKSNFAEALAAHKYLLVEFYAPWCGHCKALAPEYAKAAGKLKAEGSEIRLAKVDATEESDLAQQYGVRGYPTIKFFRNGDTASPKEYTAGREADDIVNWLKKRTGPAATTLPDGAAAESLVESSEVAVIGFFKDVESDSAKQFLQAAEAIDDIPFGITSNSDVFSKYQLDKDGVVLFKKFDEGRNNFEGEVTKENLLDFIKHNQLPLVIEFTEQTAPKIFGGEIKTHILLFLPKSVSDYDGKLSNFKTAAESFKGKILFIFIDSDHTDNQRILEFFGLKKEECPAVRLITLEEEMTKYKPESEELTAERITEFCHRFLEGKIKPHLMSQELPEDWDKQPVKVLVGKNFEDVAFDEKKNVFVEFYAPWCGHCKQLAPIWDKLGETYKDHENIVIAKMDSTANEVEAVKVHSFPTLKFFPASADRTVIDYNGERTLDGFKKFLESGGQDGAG
# PDIA1 [6] = target: T1, PDIA1; assay: STED microscopy colocalization of GzmA with PDIA1; format: cell-based; design: endogenous in cells; host or cells: primary human monocytes infected with mycobacteria; conditions: STED images, infected and treated human monocytes
# Procedure: as §1
# Target sequence in this assay (P07237 18-508): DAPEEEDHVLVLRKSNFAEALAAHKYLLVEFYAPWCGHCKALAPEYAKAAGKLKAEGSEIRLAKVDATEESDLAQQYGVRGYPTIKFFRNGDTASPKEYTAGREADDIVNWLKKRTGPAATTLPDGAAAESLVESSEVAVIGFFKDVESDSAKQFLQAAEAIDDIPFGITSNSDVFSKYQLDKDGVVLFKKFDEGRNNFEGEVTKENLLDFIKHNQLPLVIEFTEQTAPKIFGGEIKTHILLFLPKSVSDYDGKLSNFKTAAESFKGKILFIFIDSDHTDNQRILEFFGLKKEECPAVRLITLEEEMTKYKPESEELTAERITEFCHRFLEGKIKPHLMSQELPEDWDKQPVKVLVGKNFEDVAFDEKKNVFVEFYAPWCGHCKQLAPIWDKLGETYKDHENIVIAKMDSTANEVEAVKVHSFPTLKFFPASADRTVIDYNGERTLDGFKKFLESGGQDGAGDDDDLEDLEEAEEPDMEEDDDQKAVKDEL
# [7] = tested on: Protein Disulfide Isomerase A1 (PDIA1); conditions: human monocytes infected and treated with GzmA; cited from earlier work
molecule,measurement,setting,value
B1,inhibition of intracellular mycobacterial growth in TLR4-deficient iMac cells,[1],incapable of inhibiting intracellular mycobacterial growth
same,binding to mycobacteria,mycobacteria BCG-GFP,bound mycobacteria
same,uptake and persistence of bacteria in treated cells with detectable GzmA,[2]; GzmA detected in treated monocytes,least uptake and persistence of bacteria
same,mycobacterial growth in treated cells without sufficient internalization of protein (GzmA-),"[2]; GzmA- cells, over 18 h",reduced mycobacterial growth over time
same,reduction in mycobacterial growth AUC,"[2]; cells treated and staining positive for GzmA, over 18 h",78%
same,colocalization between LAMP1 and BCG-GFP,[3],greater degree of colocalization
same,stability at 4° C. (retention of substrate activity),[4],continued to retain its activity
same,conversion of homodimer by PDIA1,PDIA1 [5],monomeric band at 27 KDa
same,degree of co-localization between GzmA and PDIA1,PDIA1 [6],75%
same,PDIA1 upregulation compared to control,[7],90%
